Assay results published in IntAct's records for PubMed 32296183.

B1: Very-long-chain enoyl-CoA reductase (Homo sapiens), Q9NZ01 (parent)
chain: MKHYEVEILDAKTREKLCFLDKVEPHATIAEIKNLFTKTHPQWYPARQSLRLDPKGKSLKDEDVLQKLPVGTTATLYFRDLGAQISWVTVFLTEYAGPLFIYLLFYFRVPFIYGHKYDFTSSRHTVVHLACICHSFHYIKRLLETLFVHRFSHGTMPLRNIFKNCTYYWGFAAWMAYYINHPLYTPPTYGAQQVKLALAIFVICQLGNFSIHMALRDLRPAGSKTRKIPYPTKNPFTWLFLLVSCPNYTYEVGSWIGFAIMTQCLPVALFSLVGFTQMTIWAKGKHRSYLKEFRDYPPLRMPIIPFLL
partner: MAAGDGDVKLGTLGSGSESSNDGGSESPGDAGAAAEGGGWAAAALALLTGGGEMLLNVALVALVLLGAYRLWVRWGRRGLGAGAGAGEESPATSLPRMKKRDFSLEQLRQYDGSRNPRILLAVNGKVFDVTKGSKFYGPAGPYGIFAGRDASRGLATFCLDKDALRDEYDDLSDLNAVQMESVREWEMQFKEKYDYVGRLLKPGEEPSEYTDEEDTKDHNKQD
B2: Golgi SNAP receptor complex member 2 (Homo sapiens), O14653 (parent)
chain: MDPLFQQTHKQVHEIQSCMGRLETADKQSVHIVENEIQASIDQIFSRLERLEILSSKEPPNKRQNARLRVDQLKYDVQHLQTALRNFQHRRHAREQQERQREELLSRTFTTNDSDTTIPMDESLQFNSSLQKVHNGMDDLILDGHNILDGLRTQRLTLKGTQKKILDIANMLGLSNTVMRLIEKRAFQDKYFMIGGMLLTCVVMFLVVQYLT
partner: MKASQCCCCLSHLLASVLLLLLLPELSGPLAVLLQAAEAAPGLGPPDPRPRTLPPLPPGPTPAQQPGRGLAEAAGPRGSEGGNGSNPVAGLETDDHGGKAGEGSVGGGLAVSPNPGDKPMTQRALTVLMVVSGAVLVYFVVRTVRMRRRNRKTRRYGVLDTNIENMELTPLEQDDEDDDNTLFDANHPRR
B3: Very-long-chain enoyl-CoA reductase (Homo sapiens), Q9NZ01 (parent)
chain: B1 chain
partner: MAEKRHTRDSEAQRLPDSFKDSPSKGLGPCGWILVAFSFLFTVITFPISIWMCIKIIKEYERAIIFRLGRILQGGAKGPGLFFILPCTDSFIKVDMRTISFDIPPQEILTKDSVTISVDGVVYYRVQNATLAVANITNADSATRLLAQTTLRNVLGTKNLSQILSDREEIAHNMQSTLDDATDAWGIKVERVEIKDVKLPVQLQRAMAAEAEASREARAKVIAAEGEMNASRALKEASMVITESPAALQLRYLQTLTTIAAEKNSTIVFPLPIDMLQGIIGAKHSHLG
B4: Ceroid-lipofuscinosis neuronal protein 6 (Homo sapiens), Q9NWW5 (parent)
chain: MEATRRRQHLGATGGPGAQLGASFLQARHGSVSADEAARTAPFHLDLWFYFTLQNWVLDFGRPIAMLVFPLEWFPLNKPSVGDYFHMAYNVITPFLLLKLIERSPRTLPRSITYVSIIIFIMGASIHLVGDSVNHRLLFSGYQHHLSVRENPIIKNLKPETLIDSFELLYYYDEYLGHCMWYIPFFLILFMYFSGCFTASKAESLIPGPALLLVAPSGLYYWYLVTEGQIFILFIFTFFAMLALVLHQKRKRLFLDSNGLFLFSSFALTLLLVALWVAWLWNDPVLRKKYPGVIYVPEPWAFYTLHVSSRH
partner: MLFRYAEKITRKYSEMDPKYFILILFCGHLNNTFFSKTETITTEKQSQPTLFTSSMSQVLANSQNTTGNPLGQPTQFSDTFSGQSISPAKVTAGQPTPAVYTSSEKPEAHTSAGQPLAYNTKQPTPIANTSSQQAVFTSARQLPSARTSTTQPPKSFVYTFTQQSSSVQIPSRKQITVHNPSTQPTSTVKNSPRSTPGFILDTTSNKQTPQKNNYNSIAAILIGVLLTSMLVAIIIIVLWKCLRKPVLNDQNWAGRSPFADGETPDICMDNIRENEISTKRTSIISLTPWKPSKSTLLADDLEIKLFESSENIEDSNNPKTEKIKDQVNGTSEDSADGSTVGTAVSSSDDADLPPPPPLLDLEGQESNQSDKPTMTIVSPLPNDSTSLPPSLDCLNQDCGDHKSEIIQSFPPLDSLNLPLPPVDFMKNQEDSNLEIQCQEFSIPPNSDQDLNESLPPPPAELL
B5: Dolichol kinase (Homo sapiens), Q9UPQ8 (parent)
chain: MTRECPSPAPGPGAPLSGSVLAEAAVVFAVVLSIHATVWDRYSWCAVALAVQAFYVQYKWDRLLQQGSAVFQFRMSANSGLLPASMVMPLLGLVMKERCQTAGNPFFERFGIVVAATGMAVALFSSVLALGITRPVPTNTCVILGLAGGVIIYIMKHSLSVGEVIEVLEVLLIFVYLNMILLYLLPRCFTPGEALLVLGGISFVLNQLIKRSLTLVESQGDPVDFFLLVVVVGMVLMGIFFSTLFVFMDSGTWASSIFFHLMTCVLSLGVVLPWLHRLIRRNPLLWLLQFLFQTDTRIYLLAYWSLLATLACLVVLYQNAKRSSSESKKHQAPTIARKYFHLIVVATYIPGIIFDRPLLYVAATVCLAVFIFLEYVRYFRIKPLGHTLRSFLSLFLDERDSGPLILTHIYLLLGMSLPIWLIPRPCTQKGSLGGARALVPYAGVLAVGVGDTVASIFGSTMGEIRWPGTKKTFEGTMTSIFAQIISVALILIFDSGVDLNYSYAWILGSISTVSLLEAYTTQIDNLLLPLYLLILLMA
partner: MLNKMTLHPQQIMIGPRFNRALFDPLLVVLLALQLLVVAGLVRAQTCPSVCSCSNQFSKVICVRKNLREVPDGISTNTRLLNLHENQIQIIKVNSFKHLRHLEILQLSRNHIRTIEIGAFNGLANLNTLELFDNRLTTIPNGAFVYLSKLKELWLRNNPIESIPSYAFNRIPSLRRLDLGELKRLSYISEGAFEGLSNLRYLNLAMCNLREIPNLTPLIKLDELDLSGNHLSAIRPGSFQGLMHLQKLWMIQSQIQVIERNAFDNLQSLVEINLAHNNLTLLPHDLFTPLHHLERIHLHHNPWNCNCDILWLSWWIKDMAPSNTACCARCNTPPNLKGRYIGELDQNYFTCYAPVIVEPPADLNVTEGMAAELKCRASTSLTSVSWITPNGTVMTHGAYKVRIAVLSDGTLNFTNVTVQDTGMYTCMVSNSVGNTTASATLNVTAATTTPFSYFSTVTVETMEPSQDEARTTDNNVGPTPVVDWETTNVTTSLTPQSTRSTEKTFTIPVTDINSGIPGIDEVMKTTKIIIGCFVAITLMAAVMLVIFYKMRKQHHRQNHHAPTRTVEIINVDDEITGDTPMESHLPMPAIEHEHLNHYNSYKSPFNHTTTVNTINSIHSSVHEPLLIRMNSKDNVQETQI
B6: Dolichol kinase (Homo sapiens), Q9UPQ8 (parent)
chain: B5 chain
partner: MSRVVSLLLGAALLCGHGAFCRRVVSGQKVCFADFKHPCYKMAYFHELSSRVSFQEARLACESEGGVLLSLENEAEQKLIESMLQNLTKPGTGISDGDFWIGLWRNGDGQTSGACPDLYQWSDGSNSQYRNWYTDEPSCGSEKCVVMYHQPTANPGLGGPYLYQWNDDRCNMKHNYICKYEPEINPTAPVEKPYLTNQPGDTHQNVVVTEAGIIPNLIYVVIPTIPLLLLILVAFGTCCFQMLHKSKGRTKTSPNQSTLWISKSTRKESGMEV
B7: Golgi SNAP receptor complex member 2 (Homo sapiens), O14653 (parent)
chain: B2 chain
partner: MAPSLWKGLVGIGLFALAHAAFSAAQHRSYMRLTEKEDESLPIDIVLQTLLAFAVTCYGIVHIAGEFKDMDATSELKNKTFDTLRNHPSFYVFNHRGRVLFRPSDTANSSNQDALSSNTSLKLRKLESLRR
B8: Catenin alpha-3 (Homo sapiens), Q9UI47-2 (parent)
chain: MSAETPITLNIDPQDLQVQTFTVEKLLEPLIIQVTTLVNCPQNPSSRKKGRSKRASVLLASVEEATWNLLDKGEKIAQEATVLKDELTASLEEVRKESEALKVSAERFTDDPCFLPKREAVVQAARALLAAVTRLLILADMIDVMCLLQHVSAFQRTFESLKNVANKSDLQKTYQKLGKELENLDYLAFKRQQDLKSPNQRDEIAGARASLKENSPLLHSICSACLEHSDVASLKASKDTVCEEIQNALNVISNASQGIQNMTTPPEPQAATLGSALDELENLIVLNPLTVTEEEIRPSLEKRLEAIISGAALLADSSCTRDLHRERIIAECNAIRQALQDLLSEYMNNAGKKERSNTLNIALDNMCKKTRDLRRQLRKAIIDHVSDSFLDTTVPLLVLIEAAKNGREKEIKEYAAIFHEHTSRLVEVANLACSMSTNEDGIKIVKIAANHLETLCPQIINAALALAARPKSQAVKNTMEMYKRTWENHIHVLTEAVDDITSIDDFLAVSGMFLFF
partner: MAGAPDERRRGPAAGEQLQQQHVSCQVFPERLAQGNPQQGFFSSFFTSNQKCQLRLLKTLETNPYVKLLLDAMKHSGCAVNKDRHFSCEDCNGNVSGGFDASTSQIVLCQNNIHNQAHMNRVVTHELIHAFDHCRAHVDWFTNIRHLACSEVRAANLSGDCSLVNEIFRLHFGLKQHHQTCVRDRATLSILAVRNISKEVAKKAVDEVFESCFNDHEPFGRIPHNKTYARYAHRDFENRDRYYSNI
B9: Golgi SNAP receptor complex member 2 (Homo sapiens), O14653 (parent)
chain: B2 chain
partner: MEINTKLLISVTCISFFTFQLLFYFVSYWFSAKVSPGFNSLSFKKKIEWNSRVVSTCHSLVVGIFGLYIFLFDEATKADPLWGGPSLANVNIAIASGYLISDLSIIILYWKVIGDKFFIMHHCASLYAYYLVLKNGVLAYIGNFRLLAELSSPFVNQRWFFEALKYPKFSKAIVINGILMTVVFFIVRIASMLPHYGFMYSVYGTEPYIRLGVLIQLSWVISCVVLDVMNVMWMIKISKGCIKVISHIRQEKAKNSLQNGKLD
B10: Very-long-chain enoyl-CoA reductase (Homo sapiens), Q9NZ01 (parent)
chain: B1 chain
partner: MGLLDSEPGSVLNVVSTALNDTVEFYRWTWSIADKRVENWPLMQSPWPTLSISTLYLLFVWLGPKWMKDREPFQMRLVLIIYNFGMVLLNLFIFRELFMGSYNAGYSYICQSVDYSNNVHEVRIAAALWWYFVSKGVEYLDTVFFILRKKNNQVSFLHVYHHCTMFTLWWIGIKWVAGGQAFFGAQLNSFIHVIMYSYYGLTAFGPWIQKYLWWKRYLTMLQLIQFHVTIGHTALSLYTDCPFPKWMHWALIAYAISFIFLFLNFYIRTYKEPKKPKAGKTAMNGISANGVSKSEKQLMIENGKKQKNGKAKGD
B11: Golgi SNAP receptor complex member 2 (Homo sapiens), O14653 (parent)
chain: B2 chain
partner: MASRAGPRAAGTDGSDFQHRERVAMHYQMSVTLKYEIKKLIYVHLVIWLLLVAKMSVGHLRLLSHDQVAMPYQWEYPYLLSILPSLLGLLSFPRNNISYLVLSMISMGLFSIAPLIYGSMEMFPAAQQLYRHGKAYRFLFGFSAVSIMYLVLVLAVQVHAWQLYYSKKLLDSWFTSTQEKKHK
B12: Very-long-chain enoyl-CoA reductase (Homo sapiens), Q9NZ01 (parent)
chain: B1 chain
partner: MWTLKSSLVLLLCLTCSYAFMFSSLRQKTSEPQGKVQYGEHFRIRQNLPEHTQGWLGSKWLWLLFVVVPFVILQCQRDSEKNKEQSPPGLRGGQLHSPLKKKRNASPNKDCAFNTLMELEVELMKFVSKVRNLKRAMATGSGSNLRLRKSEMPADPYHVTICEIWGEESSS
B13: Golgi SNAP receptor complex member 2 (Homo sapiens), O14653 (parent)
chain: B2 chain
partner: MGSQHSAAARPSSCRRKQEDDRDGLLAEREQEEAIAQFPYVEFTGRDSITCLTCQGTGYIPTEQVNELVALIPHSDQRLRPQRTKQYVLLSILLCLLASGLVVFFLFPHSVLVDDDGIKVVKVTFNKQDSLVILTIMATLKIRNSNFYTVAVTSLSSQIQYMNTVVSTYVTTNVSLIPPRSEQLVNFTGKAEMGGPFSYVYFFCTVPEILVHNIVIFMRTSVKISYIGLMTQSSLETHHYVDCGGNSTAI
B14: Very-long-chain enoyl-CoA reductase (Homo sapiens), Q9NZ01 (parent)
chain: B1 chain

Variants of: B1
Conditions: with pgrc2_human PGRMC2, O15173

Variant | effect of a mutation on the interaction
P182L | with no effect

Variants of: B2
Conditions: with FAM174A

Variant | effect of a mutation on the interaction
G144W | with no effect

Variants of: B3
Conditions: with stom_human STOM

Variant | effect of a mutation on the interaction
P182L | disrupting interaction strength

Variants of: B4
Conditions: with EVI2B

Variant | effect of a mutation on the interaction
R6T | with no effect
L47F | with no effect
G123D | with no effect

Variants of: B5
Conditions: with lrc4c_human LRRC4C

Variant | effect of a mutation on the interaction
Y441S | disrupting interaction strength

Variants of: B6
Conditions: with chodl_human CHODL

Variant | effect of a mutation on the interaction
Y441S | disrupting interaction strength

Variants of: B7
Conditions: with emc5_human MMGT1, Q8N4V1

Variant | effect of a mutation on the interaction
G144W | with no effect

Variants of: B8
Conditions: with atp23_human ATP23, Q9Y6H3

Variant | effect of a mutation on the interaction
V94D | disrupting interaction strength

Variants of: B9
Conditions: with tlcd4_human TLCD4, Q96MV1

Variant | effect of a mutation on the interaction
G144W | with no effect

Variants of: B10
Conditions: with elov4_human ELOVL4, Q9GZR5

Variant | effect of a mutation on the interaction
P182L | disrupting interaction strength

Variants of: B11
Conditions: with jagn1_human JAGN1, Q8N5M9

Variant | effect of a mutation on the interaction
G144W | with no effect

Variants of: B12
Conditions: with FAM209A

Variant | effect of a mutation on the interaction
P182L | disrupting interaction strength

Variants of: B13
Conditions: with TMEM106C

Variant | effect of a mutation on the interaction
G144W | disrupting interaction strength

Variants of: B14
Conditions: with ergi3_human ERGIC3, Q9Y282
ergi3_human ERGIC3, Q9Y282, sequence (Q9Y282 whole entry): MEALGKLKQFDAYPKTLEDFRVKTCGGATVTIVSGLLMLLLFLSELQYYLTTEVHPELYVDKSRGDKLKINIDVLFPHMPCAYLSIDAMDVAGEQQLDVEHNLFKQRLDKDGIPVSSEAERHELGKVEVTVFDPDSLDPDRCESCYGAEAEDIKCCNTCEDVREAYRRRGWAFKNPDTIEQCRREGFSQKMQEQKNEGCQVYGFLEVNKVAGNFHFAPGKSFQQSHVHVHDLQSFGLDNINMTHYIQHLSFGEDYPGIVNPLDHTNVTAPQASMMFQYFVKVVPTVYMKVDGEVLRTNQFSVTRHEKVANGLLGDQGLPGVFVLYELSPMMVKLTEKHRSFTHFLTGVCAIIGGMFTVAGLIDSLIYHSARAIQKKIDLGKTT

Variant | effect of a mutation on the interaction
P182L | disrupting interaction strength

Variants of: B14
Conditions: with cd79a_human CD79A

Variant | effect of a mutation on the interaction
P182L | disrupting interaction strength

Variants of: B14
Conditions: with MUC1, P15941-11
MUC1, P15941-11, sequence (P15941 other isoform, or with tags, fused parts or gaps): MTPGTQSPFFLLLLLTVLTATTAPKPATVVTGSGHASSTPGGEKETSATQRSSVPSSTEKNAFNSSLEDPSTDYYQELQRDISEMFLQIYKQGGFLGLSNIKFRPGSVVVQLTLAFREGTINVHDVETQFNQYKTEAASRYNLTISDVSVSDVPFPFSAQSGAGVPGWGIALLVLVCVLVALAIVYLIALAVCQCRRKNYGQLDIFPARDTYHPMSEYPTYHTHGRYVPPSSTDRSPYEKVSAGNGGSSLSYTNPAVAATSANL

Variant | effect of a mutation on the interaction
P182L | disrupting interaction strength

Variants of: B14
Conditions: with ar13b_human ARL13B

Variant | effect of a mutation on the interaction
P182L | disrupting interaction strength

Variants of: B14
Conditions: with SLC7A14, Q8TBB6
SLC7A14, Q8TBB6, sequence (Q8TBB6 whole entry): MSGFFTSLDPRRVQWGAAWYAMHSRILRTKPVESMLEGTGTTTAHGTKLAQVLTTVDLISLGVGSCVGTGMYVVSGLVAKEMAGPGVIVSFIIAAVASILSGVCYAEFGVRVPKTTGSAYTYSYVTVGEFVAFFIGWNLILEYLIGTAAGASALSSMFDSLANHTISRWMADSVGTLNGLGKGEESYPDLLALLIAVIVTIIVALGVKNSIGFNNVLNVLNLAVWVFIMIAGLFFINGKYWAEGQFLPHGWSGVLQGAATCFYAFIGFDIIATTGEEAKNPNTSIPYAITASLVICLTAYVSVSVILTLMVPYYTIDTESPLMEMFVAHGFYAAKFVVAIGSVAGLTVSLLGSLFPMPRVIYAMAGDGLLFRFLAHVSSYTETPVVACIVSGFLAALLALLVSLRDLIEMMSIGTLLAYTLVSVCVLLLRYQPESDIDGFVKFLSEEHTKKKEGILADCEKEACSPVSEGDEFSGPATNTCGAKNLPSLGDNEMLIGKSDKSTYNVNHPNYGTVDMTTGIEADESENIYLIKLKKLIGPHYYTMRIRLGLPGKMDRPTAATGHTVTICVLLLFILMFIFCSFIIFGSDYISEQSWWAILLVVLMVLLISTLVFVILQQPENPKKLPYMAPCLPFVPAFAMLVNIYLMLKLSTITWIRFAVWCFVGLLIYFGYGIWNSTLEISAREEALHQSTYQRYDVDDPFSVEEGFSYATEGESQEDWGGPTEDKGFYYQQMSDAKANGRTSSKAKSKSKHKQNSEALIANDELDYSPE

Variant | effect of a mutation on the interaction
P182L | disrupting interaction strength

Variants of: B14
Conditions: with sting_human STING1, Q86WV6
sting_human STING1, Q86WV6, sequence (Q86WV6 whole entry): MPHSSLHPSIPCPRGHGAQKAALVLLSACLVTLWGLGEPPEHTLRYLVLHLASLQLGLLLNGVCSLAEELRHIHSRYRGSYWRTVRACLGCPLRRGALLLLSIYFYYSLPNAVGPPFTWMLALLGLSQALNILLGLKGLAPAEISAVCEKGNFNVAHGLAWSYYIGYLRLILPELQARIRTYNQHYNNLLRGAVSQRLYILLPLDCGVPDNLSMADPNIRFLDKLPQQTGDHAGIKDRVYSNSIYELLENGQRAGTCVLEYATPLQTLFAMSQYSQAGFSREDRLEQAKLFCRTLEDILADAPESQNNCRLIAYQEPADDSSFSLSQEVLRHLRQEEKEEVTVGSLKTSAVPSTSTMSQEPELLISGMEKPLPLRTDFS

Variant | effect of a mutation on the interaction
P182L | with no effect
